# Reference: US20040067880A1 (priority 2002, published 2004)
# B1: CD: recombinant Escherichia coli cytosine deaminase with 6 histidine residues at the C-terminus (protein, UniProt P25524 2-427, looked up)
# Cytosine deaminase: SNNALQTIINARLPGEEGLWQIHLQDGKISAIDAQSGVMPITENSLDAEQGLVIPPFVEPHIHLDTTQTAGQPNWNQSGTLFEGIERWAERKALLTHDDVKQRAWQTLKWQIANGIQHVRTHVDVSDATLTALKAMLEVKQEVAPWIDLQIVAFPQEGILSYPNGEALLEEALRLGADVVGAIPHFEFTREYGVESLHKTFALAQKYDRLIDVHCDEIDDEQSRFVETVAALAHHEGMGARVTASHTTAMHSYNGAYTSRLFRLLKMSGINFVANPLVNIHLQGRFDTYPKRRGITRVKEMLESGINVCFGHDDVFDPWYPLGTANMLQVLHMGLHVCQLMGYGQINDGLNLITHHSARTLNLQDYGIAAGNSANLIILPAENGFDALRRQVPVRYSVRGGKVIASTQPAQTTVYLEQPEAIDYKR
# modifications: C-terminal His6 tag
# notes: recombinant Escherichia coli cytosine deaminase with 6 histidine residues at the C-terminus
# Assays:
# [1] = target: CS receptor on human cells (HepG2 hepatoma cells; human liver metastases of colorectal cancer) (human); assay: indirect immunofluorescence on frozen sections of human liver MCC from six patients
# [2] = target: CS receptor on mouse colorectal carcinoma MCA26 cells (mouse); assay: cell-based or functional assay
# [3] = target: CS receptor on rat cells (rat liver sections; rat hepatoma H4IIE) (rat); assay: cell-based or functional assay
# [4] = target: CS receptor on human cells (HepG2 hepatoma cells; human liver metastases of colorectal cancer) (human); assay: cell-based or functional assay
# HepG2 cells [5] = format: cell-based, human; conditions: HepG2, 0.64 μM protein 4 hrs, 1 mM 5-FC, viability after 4 days
# [6] = Cytosine deaminase enzymatic activity assay (conversion of [3H]cytosine to [3H]uracil); format: biochemical; conditions: purified recombinant protein
# Experimental: Crude cell extracts were prepared by sonicating cells in a buffer (50 mM Na phosphate, pH 7.8 and 0.3 M NaCl) followed by centrifugation. Cytosine deaminase activity was determined by measuring the production of uracil in a reaction mixture (50 μl) containing 5 mM, 6-[^3H]cytosine (0.45 Ci/mol), 50 mM Tris-HCl pH 7.8, 1 mM DTT, 1 mM EDTA and cellular crude extract (10-20 μg/ml) or eluted fractions. After 1-2 hour of incubation at 37° C., 10 μl aliquots were withdrawn and analyzed by thin layer chromatography (Silica Gel 60, Selecto Scientific, Norcross, Ga.). Chromatograms were developed in 1-butanol /water (86/14, v/v). Positions of cytosine and uracil were identified by […]. The corresponding spots for cytosine and uracil were cut out and radioactivities were determined in a scintillation counter. In some cases, 6-[3H] 5-FC (4.0 Ci/mmol) was used as a substrate in the assay.
# HL60 cells = assay: Cytotoxicity assay with 5-FC in HL60 cells; format: cell-based; conditions: HL-60, 0.64 μM protein 4 hrs, protein removed (washed), 1 mM 5-FC
# HepG2 cells [7] = assay: Persistent effect on 5-FC cell killing of HepG2 cells; format: cell-based, human; conditions: HepG2, 0.5 μM protein 4 hrs, then 5-FC at intervals
# Experimental: FIG. 7. Persistent effect of CD-CS on cell killing of HepG2 cells. HepG2 cells were treated with 0.8 μM of CD-CS or with CD as a control for 4 hr. Cells was washed with fresh medium and cultured in the regular medium. Cultures were split once every 6 days. At different time intervals, cells were treated with 1 mM 5-FC. Cell viability was counted 4 days thereafter. Each point represents an average of three independent experiments.
# HepG2 cells were treated with 0.5 μM of CD-CS or CD for 4 hrs and the recombinant proteins were removed from the medium and the cells were maintained in fresh medium thereafter. At different time intervals, cells were treated with 5-FC. Sustained cell killing was observed even 28 days after the removal of the recombinant protein (FIG. 7).
molecule,measurement,setting,value
full-length recombinant CS protein (malarial circumsporozoite protein) (from UniProt P19597 27-396) (ligand),positive staining cells,[1],> 90%
"CD-CS fusion protein (cytosine deaminase fused to repeat-deleted malarial circumsporozoite protein, encoded by pCD5-73.15.5) (from UniProt P19597 27-29; P25524 2-427; P19597 30-396)","LD50 of CD-CS-mediated cell killing, MCA26",[2],0.22 µM
same,"LD50 of CD-CS-mediated cell killing, rat hepatoma H-4-II-E",[3],0.22 µM
same,"LD50 of CD-CS-mediated cell killing, HepG2",[4],0.22 µM
B1,sensitivity of protein-treated cells to 5-FC,HepG2 cells [5]; unwashed,sensitive
same,sensitivity of protein-pretreated cells to 5-FC / cell killing,HepG2 cells [5]; washed,could not
same,"specific activity, conversion of [3H]cytosine to [3H]uracil",[6],"3,308 nmol/min/mg protein"
same,cell death upon subsequent addition of 5-FC,HL60 cells,failed to induce cell death
same,cell killing (basal level),HepG2 cells [7],< 10%
